Data taken from patent publication US20170015742A1 (published 2017).

Columns and labels:
[1] = target: recombinant human VEGF165 (human, UniProt P15692 207-395); test: cell-based or functional assay
[2] = target: recombinant human PDGF-BB (human, UniProt P01127 82-190); test: cell-based or functional assay
Sequence of recombinant human PDGF-BB (P01127 82-190 limits assumed): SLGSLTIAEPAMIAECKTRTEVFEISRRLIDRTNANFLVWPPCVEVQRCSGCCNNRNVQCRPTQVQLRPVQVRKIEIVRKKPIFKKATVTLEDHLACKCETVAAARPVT

Sequence of recombinant human VEGF165 (P15692 other isoform, or with tags, fused parts or gaps limits assumed): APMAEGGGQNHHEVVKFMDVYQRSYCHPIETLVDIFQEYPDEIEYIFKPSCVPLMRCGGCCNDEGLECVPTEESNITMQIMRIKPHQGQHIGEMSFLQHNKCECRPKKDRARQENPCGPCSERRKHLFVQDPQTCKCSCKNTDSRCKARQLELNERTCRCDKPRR

Binder	Potency IC50 (nM) HMVEC-d hVEGF165 [1] [nM]	Potency IC50 (nM) NIH-3T3 hPDGF-BB [2] [nM]
AB014-GS10-9E8.4 VK-VH (bispecific antibody, human IgG1, kappa, L234A L235A) heavy: EVQLVESGGGLVQPGGSLRLSCAASGYTFTNYGMNWVRQAPGKGLEWVGWINTYTGEPTYAADFKRRFTFSLDTSKSTAYLQMNSLRAEDTAVYYCAKYPHYYGSSHWYFDVWGQGTLVTVSSASTKGPSVFPLAPSSKSTSGGTAALGCLVKDYFPEPVTVSWNSGALTSGVHTFPAVLQSSGLYSLSSVVTVPSSSLGTQTYICNVNHKPSNTKVDKKVEPKSCDKTHTCPPCPAPEAAGGPSVFLFPPKPKDTLMISRTPEVTCVVVDVSHEDPEVKFNWYVDGVEVHNAKTKPREEQYNSTYRVVSVLTVLHQDWLNGKEYKCKVSNKALPAPIEKTISKAKGQPREPQVYTLPPSREEMTKNQVSLTCLVKGFYPSDIAVEWESNGQPENNYKTTPPVLDSDGSFFLYSKLTVDKSRWQQGNVFSCSVMHEALHNAYTQKSLSLSPGKGGSGGGGSGGEIVLTQSPGTLSLSPGERATLSCERSSGDIGDSYVSWYQQKPGQAPRLVIYADDQRPSGIPDRFSGSGSGTDFTLTISRLEPEDFAVYYCQSYDINIDIVFGGGTKVEIKGGGGSGGGGSGGGGSEVTLRESGPALVKPTQTLTLTCTFSGFSLSTYGMGVGWIRQPPGKALEWLANIWWDDDKYYNPSLKNRLTISKDTSKNQVVLTMTNMDPVDTATYYCARIESIGTTYSFDYWGQGTMVTVSS light: not shown	0.086	0.074
4G8.4-GS10-9E8.4 (bispecific antibody, human IgG1, kappa, L234A L235A) heavy: not shown light: AIQLTQSPSSLSASVGDRVTITCRASESVSTHMHWYQQKPGKAPKLLIYGASNLESGVPSRFSGSGSGTDFTLTISSLQPEDFATYYCQQSWNDPFTFGQGTKLEIKRGGSGGGGSGEFVLTQSPGTLSLSPGERATLSCERSSGDIGDSYVSWYQQKPGQAPRLVIYADDQRPSGIPDRFSGSGSGTDFTLTISRLEPEDFAVYYCQSYDINIDIVFGGGTKVEIKRTVAAPSVFIFPPSDEQLKSGTASVVCLLNNFYPREAKVQWKVDNALQSGNSQESVTEQDSKDSTYSLSSTLTLSKADYEKHKVYACEVTHQGLSSPVTKSFNRGEC	0.281	1.33
4G8.12-GS10-9E8.4 (bispecific antibody, human IgG1, kappa, L234A L235A) heavy: not shown light: DTVLTQSPATLSLSPGERATLSCRASESVSTHMHWYQQKPGQAPRLLIYGASNLESGVPARFSGSGSGTDFTLTISSLEPEDFAVYFCQQSWNDPFTFGQGTKLEIKRGGSGGGGSGEFVLTQSPGTLSLSPGERATLSCERSSGDIGDSYVSWYQQKPGQAPRLVIYADDQRPSGIPDRFSGSGSGTDFTLTISRLEPEDFAVYYCQSYDINIDIVFGGGTKVEIKRTVAAPSVFIFPPSDEQLKSGTASVVCLLNNFYPREAKVQWKVDNALQSGNSQESVTEQDSKDSTYSLSSTLTLSKADYEKHKVYACEVTHQGLSSPVTKSFNRGEC	0.079	0.227
4G8.14-GS10-9E8.4 (bispecific antibody, human IgG1, kappa, L234A L235A) heavy: not shown light: DTVLTQSPSTLSASPGERATISCRASESVSTHMHWYQQKPGQAPKLLIYGASNLESGVPSRFSGSRSGTDFTLTISSLQPEDFAVYFCQQSWNDPFTFGQGTKVEIKRGGSGGGGSGEFVLTQSPGTLSLSPGERATLSCERSSGDIGDSYVSWYQQKPGQAPRLVIYADDQRPSGIPDRFSGSGSGTDFTLTISRLEPEDFAVYYCQSYDINIDIVFGGGTKVEIKRTVAAPSVFIFPPSDEQLKSGTASVVCLLNNFYPREAKVQWKVDNALQSGNSQESVTEQDSKDSTYSLSSTLTLSKADYEKHKVYACEVTHQGLSSPVTKSFNRGEC	0.113	0.459
4G8.13-GS10-9E8.4 (bispecific antibody, human IgG1, kappa, L234A L235A) heavy: not shown light: ETVLTQSPATLSVSPGERATLSCRASESVSTHMHWYQQKPGQAPRLLIYGASNLESGVPARFSGSGSGTDFTLTISSLQSEDFAVYFCQQSWNDPFTFGQGTRLEIKRGGSGGGGSGEFVLTQSPGTLSLSPGERATLSCERSSGDIGDSYVSWYQQKPGQAPRLVIYADDQRPSGIPDRFSGSGSGTDFTLTISRLEPEDFAVYYCQSYDINIDIVFGGGTKVEIKRTVAAPSVFIFPPSDEQLKSGTASVVCLLNNFYPREAKVQWKVDNALQSGNSQESVTEQDSKDSTYSLSSTLTLSKADYEKHKVYACEVTHQGLSSPVTKSFNRGEC	0.907	0.255
4G8.5_GS_CL-33675 (bispecific antibody, human IgG1, kappa, L234A L235A) heavy: EIQLVQSGSELKKPGASVKVSCKASGYTFTNYGMYWVRQAPGQGLEYMGWINTETGKPTYADDFKGRFVFSLDTSVSTAYLQISSLKAEDTAVYFCARTNYYYRSYIFYFDYWGQGTMVTVSSGGGGSGGGGSEVTLRESGPALVKPTQTLTLTCTFSGFSLSTYGMGVGWIRQPPGKALEWLANIWWDDDKYYNPSLKNRLTISKDTSKNQVVLTMTNMDPVDTATYYCARIESSGPKYSFDYWGQGTMVTVSSASTKGPSVFPLAPSSKSTSGGTAALGCLVKDYFPEPVTVSWNSGALTSGVHTFPAVLQSSGLYSLSSVVTVPSSSLGTQTYICNVNHKPSNTKVDKKVEPKSCDKTHTCPPCPAPEAAGGPSVFLFPPKPKDTLMISRTPEVTCVVVDVSHEDPEVKFNWYVDGVEVHNAKTKPREEQYNSTYRVVSVLTVLHQDWLNGKEYKCKVSNKALPAPIEKTISKAKGQPREPQVYTLPPSREEMTKNQVSLTCLVKGFYPSDIAVEWESNGQPENNYKTTPPVLDSDGSFFLYSKLTVDKSRWQQGNVFSCSVMHEALHNAYTQKSLSLSPGK light: ATQLTQSPSLSASVGDRVTITCRASESVSTHMHWYQQKPGKQPKLLIYGASNLESGVPSRFSGSGSGTDFTLTISSLQPEDFATYFCQQSWNDPFTFGQGTKLEIKGGSGGGGSGGEIVLTQSPGTLSLSPGERATLSCRASSGSIWYSFVSWYQQKPGQAPRLLIYADDQRASGIPDRFSGSGSGTDFTLTISRLEPEDFAVYYCQSYGINIDVVFGGGTKVEIKRTVAAPSVFIFPPSDEQLKSGTASVVCLLNNFYPREAKVQWKVDNALQSGNSQESVTEQDSKDSTYSLSSTLTLSKADYEKHKVYACEVTHQGLSSPVTKSFNRGEC	0.076	0.05
4G8.2-GS10-9E8.4 (bispecific antibody, human IgG1, kappa, L234A L235A) heavy: not shown light: ATQLTQSPSLSASVGDRVTITCRASESVSTHMHWYQQKPGKQPKLLIYGASNLESGVPSRFSGSGSGTDFTLTISSLQPEDFATYFCQQSWNDPFTFGQGTKLEIKRGGSGGGGSGEFVLTQSPGTLSLSPGERATLSCERSSGDIGDSYVSWYQQKPGQAPRLVIYADDQRPSGIPDRFSGSGSGTDFTLTISRLEPEDFAVYYCQSYDINIDIVFGGGTKVEIKRTVAAPSVFIFPPSDEQLKSGTASVVCLLNNFYPREAKVQWKVDNALQSGNSQESVTEQDSKDSTYSLSSTLTLSKADYEKHKVYACEVTHQGLSSPVTKSFNRGEC	0.221	> 5
4G8.5-GS10-9E8.4 (bispecific antibody, human IgG1, kappa, L234A L235A) heavy: not shown light: ATQLTQSPSLSASVGDRVTITCRASESVSTHMHWYQQKPGKQPKLLIYGASNLESGVPSRFSGSGSGTDFTLTISSLQPEDFATYFCQQSWNDPFTFGQGTKLEIKRGGSGGGGSGEFVLTQSPGTLSLSPGERATLSCERSSGDIGDSYVSWYQQKPGQAPRLVIYADDQRPSGIPDRFSGSGSGTDFTLTISRLEPEDFAVYYCQSYDINIDIVFGGGTKVEIKRTVAAPSVFIFPPSDEQLKSGTASVVCLLNNFYPREAKVQWKVDNALQSGNSQESVTEQDSKDSTYSLSSTLTLSKADYEKHKVYACEVTHQGLSSPVTKSFNRGEC	0.079	> 5
